Residue numbers refer to the chain shown, from its start.
B1: 4A12 PR3 (designed binder)
chain: EVVAATPTSLLISWRHPHFPTRYYRITYGETGGNSPVQEFTVPLQPPTATISGLKPGVDYTITGYAVTVAQNDHELLTPISINYRT
notes: tag left out
B2: 3D11 PR3 (designed binder)
chain: B1 chain with V69L, A70G, N72E, D73N, H74Q, L77I
notes: tag left out
B3: 3C5 PR3 (designed binder)
chain: B1 chain with V69G, A70D, Q71H, H74R, L77M
notes: tag left out
B4: 3′D12 PR4 (designed binder)
chain: B1 chain with V69G, A70E, H74Y, T78V
notes: tag left out
B5: 1′DelH1 PR4 (designed binder)
chain: B1 chain with D73G, L77I
notes: tag left out
B6: 2′DelB11 PR4 (designed binder)
chain: B1 chain with A70G, L77M
notes: tag left out
B7: 3F5 PR3 (designed binder)
chain: B1 chain with Q71Y, D73E, L77Y
notes: tag left out
B8: 3D4 PR3 (designed binder)
chain: B1 chain with A70G, Q71W, L77I
notes: tag left out
B9: 1′DelC5 PR4 (designed binder)
chain: B1 chain with V69L, L76I, L77M
notes: tag left out
B10: 3F1 PR3 (designed binder)
chain: B1 chain with V69L, A70T, Q71H, D73E, H74Q, E75Y, L77F
notes: tag left out
B11: 3A8 PR3 (designed binder)
chain: B1 chain with V69E, Q71H, N72H, D73G, L77M, T78I
notes: tag left out
B12: 3F4 PR3 (designed binder)
chain: B1 chain with V69M, A70G, Q71Y, N72E, L77I
notes: tag left out
B13: 2′DelH2 PR4 (designed binder)
chain: B1 chain with A70S, N72Y, D73G, L77I
notes: tag left out
B14: 3F11 PR3 (designed binder)
chain: B1 chain with A70G, Q71L, N72T, E75V
notes: tag left out
B15: 3E6 PR3 (designed binder)
chain: B1 chain with A70P, D73G, L77I, P79M
notes: tag left out
B16: 1′DelG11 PR4 (designed binder)
chain: B1 chain with V69L, D73G, E75V, L77I
notes: tag left out
B17: 1′DelD3 PR4 (designed binder)
chain: B1 chain with V69L, D73N, L77I
notes: tag left out
B18: 2′DelB10 PR4 (designed binder)
chain: B1 chain with A70T, Q71H
notes: tag left out
B19: 4A2 PR3 (designed binder)
chain: B1 chain with D73A, L77M
notes: tag left out
B20: 1′DelC10 PR4 (designed binder)
chain: B1 chain with Q71K, L77I
notes: tag left out
B21: 1′DelE11 PR4 (designed binder)
chain: B1 chain with H74R, L77I
notes: tag left out
B22: 2′Del F12 PR4 (designed binder)
chain: B1 chain with V69L, A70T, N72H
notes: tag left out
B23: 1′DelC6 PR4 (designed binder)
chain: B1 chain with D73E
notes: tag left out
B24: 4A3 PR3 (designed binder)
chain: B1 chain with N72D, D73E, L77I
notes: tag left out
B25: 1′DelA9 PR4 (designed binder)
chain: B1 chain with V69L, L77M
notes: tag left out
B26: 3′E4 PR4 (designed binder)
chain: B1 chain with A70G, Q71P, H74R, L77I, T78V
notes: tag left out
B27: 1′DelC4 PR4 (designed binder)
chain: B1 chain with N72S, D73N, L77M
notes: tag left out
B28: 3′A3 PR4 (designed binder)
chain: B1 chain with V69R, L77I
notes: tag left out
B29: 3H9 PR3 (designed binder)
chain: B1 chain with A70S, N72Q, D73N
notes: tag left out
B30: 3G10 PR3 (designed binder)
chain: B1 chain with A70V, Q71H, D73G, L76I
notes: tag left out
B31: 1′DelB10 PR4 (designed binder)
chain: B1 chain with Q71R, L77M
notes: tag left out
B32: 1′DelH9 PR4 (designed binder)
chain: B1 chain with A70G, L77I
notes: tag left out
B33: 1′DelH7 PR4 (designed binder)
chain: B1 chain with A70G, H74Q
notes: tag left out
B34: 3′E6 PR4 (designed binder)
chain: B1 chain with V69F, A70G, D73G, H74K, L76F, L77R, T78I
notes: tag left out
B35: 2′DelB9 PR4 (designed binder)
chain: B1 chain with A70G, Q71P, N72T
notes: tag left out
B36: 3′F7 PR4 (designed binder)
chain: B1 chain with V69E, A70G, D73G, H74S, L77I, T78V
notes: tag left out
B37: 1′DelB7 PR4 (designed binder)
chain: B1 chain with L77K
notes: tag left out
B38: 1′DelH6 PR4 (designed binder)
chain: B1 chain with A70G, N72Y, L77I
notes: tag left out
B39: 3′D4 PR4 (designed binder)
chain: B1 chain with V69L, Q71H, H74R, L77I
notes: tag left out
B40: 1′DelG9 PR4 (designed binder)
chain: B1 chain with N72S, L77M
notes: tag left out
B41: 3G5 PR3 (designed binder)
chain: B1 chain with V69L, A70G, Q71E, H74R, E75K, L77I
notes: tag left out
B42: 3G1 PR3 (designed binder)
chain: B1 chain with V69M, D73V, H74R
notes: tag left out
B43: 1′DelE12 PR4 (designed binder)
chain: B1 chain with N72S, L77F
notes: tag left out
B44: 1′DelC2 PR4 (designed binder)
chain: B1 chain with A70D, Q71R, L77F
notes: tag left out
B45: 2′Del E12 PR4 (designed binder)
chain: B1 chain with V69E, A70G, Q71P, D73G, L77I
notes: tag left out
B46: 3′E8 PR4 (designed binder)
chain: B1 chain with H74R, E75Q, L77F
notes: tag left out
B47: 2H10 PR3 (designed binder)
chain: VSDVPRDLEVVAATPTSLLISWRHPHFPTRYYRITYGETGGNSPVQEFTVPLQPPTATISGLKPGVDYTITGYAVTLAPSARELMTPISINYRT
notes: tag left out
B48: 2′A1-PR4 (designed binder)
chain: B47 chain with L77S, A78G, P79H, S80N, A81D, R82H, E83M, T86I
notes: tag left out
B49: 2′C7-PR4 (designed binder)
chain: B47 chain with L77W, A78D, P79Q, S80N, A81G, R82H, E83V, M85L
notes: tag left out
B50: 2′H5-PR4 (designed binder)
chain: B47 chain with A78G, P79K, S80D, A81V, M85L
notes: tag left out
B51: 2′B9-PR4 (designed binder)
chain: B47 chain with L77V, A78G, S80T, A81D, R82H, M85L
notes: tag left out
B52: 2′G11-PR4 (designed binder)
chain: B47 chain with L77G, A78G, P79Q, S80M, A81N, E83V
notes: tag left out
B53: 2′D5-PR4 (designed binder)
chain: B47 chain with L77V, P79W, S80N, A81D, R82H, E83M
notes: tag left out
B54: 2′F7-PR4 (designed binder)
chain: B47 chain with A78G, P79L, S80R, A81D, M85F, T86V
notes: tag left out
B55: 2′A11-PR4 (designed binder)
chain: B47 chain with L77E, A78D, P79I, S80R, A81V, R82L, E83W, M85N, P87T
notes: tag left out
B56: 2′B4-PR4 (designed binder)
chain: B47 chain with L77S, A78G, P79H, S80N, A81G, R82H, L84V
notes: tag left out
B57: 2′F6-PR4 (designed binder)
chain: B47 chain with A78G, P79W, S80N, A81D, R82H, M85Y, T86I
notes: tag left out
B58: 2H12 PR3 (designed binder)
chain: B47 chain with L77E, A78G, P79Y, S80Q, A81N, R82H, M85S, T86V
notes: tag left out

Biological target: T1, human vascular endothelial growth factor receptor-2 Fc chimera (KDR-Fc) (human, UniProt P35968 20-764)
T1 construct: range 1-764; purchased from R&D Systems; also called hKDR; human VEGF-R2-Fc; not shown: human IgG1 Fc
T1 sequence (P35968 20-764 limits assumed, change not shown, form in doubt): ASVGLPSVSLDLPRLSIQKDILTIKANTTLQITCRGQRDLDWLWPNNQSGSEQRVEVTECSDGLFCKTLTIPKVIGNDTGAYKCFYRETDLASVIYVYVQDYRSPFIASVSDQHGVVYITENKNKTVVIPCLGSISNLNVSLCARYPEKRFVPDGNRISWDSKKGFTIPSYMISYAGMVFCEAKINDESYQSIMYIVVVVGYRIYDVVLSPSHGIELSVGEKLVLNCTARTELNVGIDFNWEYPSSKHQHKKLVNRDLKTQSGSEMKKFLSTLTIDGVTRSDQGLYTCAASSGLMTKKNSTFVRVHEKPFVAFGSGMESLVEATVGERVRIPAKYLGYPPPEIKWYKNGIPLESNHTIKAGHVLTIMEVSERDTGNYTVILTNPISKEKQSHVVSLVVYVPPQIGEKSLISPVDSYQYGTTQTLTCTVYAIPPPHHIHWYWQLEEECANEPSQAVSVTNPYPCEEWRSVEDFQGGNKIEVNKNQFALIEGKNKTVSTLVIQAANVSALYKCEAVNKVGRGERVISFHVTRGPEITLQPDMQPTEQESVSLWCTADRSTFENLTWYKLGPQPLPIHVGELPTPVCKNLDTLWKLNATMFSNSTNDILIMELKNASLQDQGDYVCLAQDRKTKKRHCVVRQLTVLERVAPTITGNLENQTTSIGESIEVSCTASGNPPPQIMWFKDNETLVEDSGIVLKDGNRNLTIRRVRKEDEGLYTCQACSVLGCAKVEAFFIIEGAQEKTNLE
Assay: radioactive equilibrium binding, 1 nM KDR-Fc
Outline: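 Percent of input bound is specific binding: total ³⁵S eluted from Protein A beads minus nonspecific bead binding without receptor. The binder (0.2 or 0.5 nM) was incubated with titrated VEGF-R2-Fc in buffer B, 30° C, 1 h.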

Row | Binder | Binding to 1 nM KDR, % [%]
1 | B1 | 13
2 | B2 | 10
3 | B3 | 12
4 | B4 | 7
5 | B5 | 9
6 | B6 | 11
7 | B7 | 11
8 | B8 | 10
9 | B9 | 11
10 | B10 | 9
11 | B11 | 12
12 | B12 | 10
13 | B13 | 8
14 | B14 | 10
15 | B15 | 12
16 | B16 | 11
17 | B17 | 12
18 | B18 | 11
19 | B19 | 8
20 | B20 | 8

Row | Binder | Binding to 1 nM KDR, % [%]
21 | B21 | 9
22 | B22 | 7
23 | B23 | 12
24 | B24 | 6
25 | B25 | 13
26 | B26 | 12
27 | B27 | 9
28 | B28 | 9
29 | B29 | 11
30 | B30 | 10
31 | B31 | 11
32 | B32 | 10
33 | B33 | 11
34 | B34 | 5
35 | B35 | 11
36 | B36 | 14
37 | B37 | 8
38 | B38 | 6
39 | B39 | 12
40 | B40 | 10

Row | Binder | Binding to 1 nM KDR, % [%]
41 | B41 | 13
42 | B42 | 13
43 | B43 | 13
44 | B44 | 13
45 | B45 | 13
46 | B46 | 12
47 | B47 | 10
48 | B48 | 11
49 | B49 | 5
50 | B50 | 3
51 | B51 | 7
52 | B52 | 12
53 | B53 | 11
54 | B54 | 5
55 | B55 | 6
56 | B56 | 4
57 | B57 | 4
58 | B58 | 10
